Results taken from patent US20240336683A1 (published 2024).
Blank lines part the entries; values can stand above or below the binder they belong to.

Key:
[1] = target: T1, human Siglec15-Fc fusion protein (human, UniProt Q6ZMC9 20-263); assay: SPR Biacore T200; Siglec15-Fc captured on Protein A chip, scFv as analyte
T1 construct: Bought protein (Acro #SG5-H5253 is named for the selection); also called recombinant Siglec 15-Fc fusion protein (Acro #SG5-H5253); human Siglec15-Fc protein; not shown: Fc part of the bought fusion protein
T1 sequence (looked up): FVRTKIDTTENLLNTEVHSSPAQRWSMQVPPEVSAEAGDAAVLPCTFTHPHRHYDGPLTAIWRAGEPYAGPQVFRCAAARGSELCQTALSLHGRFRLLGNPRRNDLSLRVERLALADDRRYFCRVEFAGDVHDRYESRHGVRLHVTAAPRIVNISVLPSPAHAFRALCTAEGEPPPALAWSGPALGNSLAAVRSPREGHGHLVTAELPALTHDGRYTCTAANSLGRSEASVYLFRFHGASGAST
Description: Kinetic analysis of anti-Siglec15 scFvs were assessed by SPR technology with Biacore T200. The assay was run with Biacore T200 control software version 2.0. Protein A sensor chip was used to capture Fc fusion protein in the assay. For each cycle, 1 ug/mL of human Siglec15-Fc protein was captured for 60 seconds at flow rate of 10 ul/min on flow cell 2 in 1× HBSP buffer on Protein A sensor chip. 2-fold serial diluted HIS tag purified anti-Siglec15 scFv was injected onto both reference flow cell 1 and Siglec 15-Fc captured flow cell 2 for 150 seconds at flow rate of 30 ul/min followed by wash for 300 seconds. The flow cells were then regenerated with Glycine pH 2 buffer (GE) for 30 seconds at flow rate of 30 ul/mins. 8 concentration points from 300-0 nM was assayed per anti-Siglec15 scFv in a 96 well plate. The kinetics of scFvs binding to Siglec 15 protein was analyzed with Biacore T200 evaluation software version 3.0. The specific binding response unit was derived from subtraction of binding to reference flow cell 1 from Siglec15 captured flow cell 2.

[2] = target: T2, full-length human Siglec15 with C-terminal flag and Myc tags on HEK293 cells (human, UniProt Q6ZMC9 20-328); assay: FACS on Siglec15/HEK293 cells, scFv, anti-His detection
T2 construct: whole, on cells; also called Siglec15/HEK293; HEK293-Siglec 15; not shown: C-terminal flag and Myc tags from pCMV6-Entry vector
T2 sequence (looked up): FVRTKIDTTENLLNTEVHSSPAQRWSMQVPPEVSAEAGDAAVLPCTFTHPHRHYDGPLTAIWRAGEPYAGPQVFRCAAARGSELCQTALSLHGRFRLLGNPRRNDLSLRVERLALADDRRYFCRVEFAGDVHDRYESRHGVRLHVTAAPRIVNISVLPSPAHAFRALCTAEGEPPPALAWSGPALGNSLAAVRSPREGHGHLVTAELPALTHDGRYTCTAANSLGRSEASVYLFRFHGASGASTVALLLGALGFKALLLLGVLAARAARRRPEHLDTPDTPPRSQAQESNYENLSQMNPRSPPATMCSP
Description: […] Cells were spun down at 1200 rpm for 5 minutes at 4° C. to remove primary antibodies. Cells were then washed once with 200 uL of full medium per well. Samples were detected with premixed anti-His Biotin Streptavidin Alexa fluor 647 by adding 100 uL of diluted secondary antibody and incubated at 4° C. for 30 minutes in the dark. Samples were spun down at 1200 rpm for 5 minutes at 4° C. and washed twice with 200 uL of 1×PBS per well. Samples were then reconstituted in 200 uL of 1×PBS and read on Attune NxT cytometer. Analysis was performed using Attune NxT software plotting the overlaying the histogram of anti-Siglec15 scFvs binding onto both negative and target cell lines.

[3] = target: T1, human Siglec15-Fc fusion protein; assay: ELISA; Siglec15-Fc captured by anti-hFc, scFv titrated, anti-Flag HRP
Description: An ELISA assay was developed to determine the EC50 of anti-Siglec15 antibodies. Briefly, a 384 well plate was immobilized with anti-human Fc antibody at final concentration of 2 ug/mL in 1×PBS in total volume of 25 uL per well. The plate was incubated overnight at 4° C. followed by blocking with 80 uL of superblock per well for 1 hour. Human Siglec 15-Fc was captured through immobilized anti-hFc antibody. Purified anti-Siglec 15 scFvs were 2-fold serial titrated from 200 nM. 25 uL was added to human Siglec15 immobilized wells and incubated for 1 hour with shaking. The Siglec15 binding was detected by adding 25 uL of anti-Flag HRP diluted at 1:5000 in 1×PBST. In between each step, the plate was washed 3 times with 1×PBST in a plate washer. The plate was then developed with 20 uL of TMB substrate for 5 mins and stopped by adding 20 uL of 2 N sulfuric acid. The plate was read at OD450 nm Biotek plate reader and then plotted in Prism 8.1 software.

B2: 2020EP032-A08 scFv (scFv, V domains shown)
VH: QVQLQQWGAGLLKPSETLSLTCAVYGGSFSGYYWSWIRQPPGKGLEWIGEINHSGSTNYNPSLKSRVTISVDTSKNQFSLKLSSVTAADTAVYYCARGVYYYDSSGPRDYFDYWGQGTLVTVSS
VL: DIVMTQSPSSLSASVGDRVTITCQASQDISNYLNWYQQKPGKAPKLLIYDASNLKTGVPSRFSGSGSGTDFTFTITSLQPEDIGTYFCQQYGNLPYTFGQGTKLEIK
notes: Tested as a single-chain scFv made in E. coli with a C-terminal flag and 6x His tag
- Kd [1]: 18.1 nM
- koff [1]: 0.000842 s⁻¹
- kon [1]: 46400 M⁻¹ s⁻¹
- EC50 [2]: 1.6 nM
- EC50 [3]: 5.87 nM

B3: 2020EP032-A12 scFv (scFv, V domains shown)
VH: QMQLVQSGGGVVQPGRSLRLSCAASGFTFSSYGMHWVRQAPGKGLEWVAVISDDGSNKYYADSVKGRFTISRDNSKNTLYLQMNSLRAEDTAVYYCAKKDVATILFDNWGQGTLVTVSS
VL: VIWMTQSPSTLSASVGDRVTITCRASQSITRWLAWYQQKPGKAPKLLIYKTSDLDGGVPSRFSGSESGAEFTLTISSLQPDDVATYFCQHYNTRSWTFGQGTKVELK
notes: as for B2
- Kd [1]: 2.26 nM
- koff [1]: 0.000294 s⁻¹
- kon [1]: 130000 M⁻¹ s⁻¹
- EC50 [2]: 0.86 nM
- EC50 [3]: 0.544 nM

B4: 2020EP032-H11 scFv (scFv, V domains shown)
VH: EVQLVESGGGLVKPGGSLRLSCAASGFTFSSYSMNWVRQAPGKGLEWVSSISSSSSYIYYADSVKGRFTISRDNAKNSLYLQMNSLRAEDTAVYYCARDYRGYSGQNYYGMDVWGQGTTVTVSS
VL: QSALTQPPSVSAAPRQKVTISCSGSSSNIGNNDVSWYQQLPGTVPKLLIYDNNKRPSGIPDRFSGSKSGTSASLGITGLQTGDEADYYCGVWDSSLSGYVFGTGTKVTVL
notes: as for B2
- Kd [1]: 0.557 nM
- koff [1]: 0.000316 s⁻¹
- kon [1]: 567000 M⁻¹ s⁻¹
- EC50 [2]: 10.6 nM
- EC50 [3]: 0.567 nM

B6: 2020EP083-G11 scFv (scFv, V domains shown)
VH: EVQLVESGGGLVEPGGSLRLSCAASGFTFSSYSMSWVRQAPGKGLEWVGRIKSETDGGTTDYAGPAKGKFIISRNDAENTVSLQMNSLKFEDTAVYHCTTDSSSSWFSYSFDNWGQETLVTVSS
VL: EIVMTQSPATLSVSPGERATLSCRASQNVNSNLAWYQQKTGQAPRLLIFGASTRATGIPARFSGSGSGTEFTLTIGSLQSEDFAVYYCQQYNNWPPTFGGWTKVEIK
notes: as for B2
- Kd [1]: 1.12 nM
- koff [1]: 0.000356 s⁻¹
- kon [1]: 318000 M⁻¹ s⁻¹
- EC50 [2]: 0.87 nM
- EC50 [3]: 1.29 nM

B10: 2020EP032-B03 scFv (scFv, V domains shown)
VH: QVQLQQWGAGLLKPSETLSLTCAVYGGSFSGYYWSWIRQPPGKGLEWIGEINHSGSTNYNPSLKSRVTISVDTSKNQFSLKLSSVTAADTAVYYCARGPLRKYYDFWSGSRNYYYYGMDVWGQGTTVTVSS
VL: QPVLTQDPAVSVALGQTVRITCQGDSLRSNYASWYQLKPGQAPVLVIYDKNNRPSGIPDRFSGSNSGNTASLTIAGAQAEDEADYYCTSRDSSGTVFGGGTKLTVL
notes: as for B2
- Kd [1]: 2.11 nM
- koff [1]: 0.000282 s⁻¹
- kon [1]: 134000 M⁻¹ s⁻¹
- EC50 [2]: 1.22 nM
- EC50 [3]: 1.78 nM

B11: 2019EP47-A05 scFv (scFv, V domains shown)
VH: QMQLVQSGAEVKKPGSSVKVSCKASGGTFSSYAISWVRQAPGQGLEWMGRIIPILGIANYAQKFQGRVTITADKSTSTAYMELSSLRSEDTAVYYCAVNTYYYDSSGYYYEYFDYWGQGTLVTVSS
VL: EIVLTQSPSSLSASVGDRVTITCQASQHINNHLNWYQQKPGKGPKLLIYDVSNLEAGVPSRFSASGSGTDFSFTISSLQPEDFATYYCQQYDSLPLTFGQGTKVEVK
notes: as for B2
- Kd [1]: 2.79 nM
- koff [1]: 7.77e-05 s⁻¹
- kon [1]: 27900 M⁻¹ s⁻¹
- EC50 [2]: 88.3 nM
- EC50 [3]: 3.35 nM

B12: 2019EP47-C12 scFv (scFv, V domains shown)
VH: EVQLVESGGGLEKPGRSLRLSCTASGFTFGDYAMSWFRQAPGKGLEWVGFITTKPYGGTTEYAASVKGRFTISRDDSKSIAYLQMNSLKTEDTAEYYCTKDSEAYYGSGSYMVGYWGQGTLVTVSS
VL: QSVLTQPPSVSLAPGKTATITCGGDNIENKDVHWYQQKPGQAPVLVIRFAADRPSGIPERFSGSSSGNTATLTISRVEAGDEADYYCQVWQSTRDHPVVVFGGGTKLTVL
notes: as for B2
- EC50 [2]: 13.1 nM
- EC50 [3]: 9.97 nM

Further binders by falling EC50 [2], results first:

- Kd [1]: 3.32 nM
- koff [1]: 6.02e-05 s⁻¹
- kon [1]: 18200 M⁻¹ s⁻¹
- EC50 [2]: 112 nM
- EC50 [3]: 2.5 nM
B1: 2019EP47-A10 scFv (scFv, V domains shown)
VH: QMQLVQSGGGVVQPGRSLRLSCAASGFTFSSYGMHWVRQAPGKGLEWVAVISYDGSNKYYADSVKDRFTISRDNSKNTLYLQMNSLRAEDTAVYYCAKDIVGDSGSYPIYYYYGMDVWGQGTTVTVSS
VL: SQSALTQPHSVSESPGKTVTISCTRSSGSIASNYVQWYQQRPGSAPSTVIYEDNQRPSGVPDRFSGSVDISSNSASLTISGLQTEDEADYYCQSYDNDNMVFGGGTKLTVL
notes: as for B2

- Kd [1]: 58.8 nM
- koff [1]: 0.00149 s⁻¹
- kon [1]: 28700 M⁻¹ s⁻¹
- EC50 [2]: 10.6 nM
- EC50 [3]: 21.9 nM
B5: 2019EP47-A02 scFv (scFv, V domains shown)
VH: EVQLVQSGGGVVQPGRSLRLSCAASGFTFSSYAMHWVRQAPGKGLEWVAVISYDGSNKYYADSVKGRFTISRDNSKNTLYLQMNSLRAEDTAVYYCARSRYSSSLRRYYGMDVWGQGTTVTVSS
VL: AIQLTQSPSSLSASVGDRVTITCQATHDIANYLNWYQQKPGKAPKLLIYAASNLETGVPSRFSGSGSGTDFTFAISSLQPEDIAVYYCQQYDNLPLTFGGGTKVEIK
notes: as for B2

- Kd [1]: 10.9 nM
- koff [1]: 0.00144 s⁻¹
- kon [1]: 132000 M⁻¹ s⁻¹
- EC50 [2]: 1 nM
- EC50 [3]: 3.3 nM
B8: 2020EP085-G5 scFv (scFv, V domains shown)
VH: QVQLVQSGAEVKKPGASVKVSCKASGYTFTDYYMHWVRQAPGQGLEWMGWINPNSGGTNYAQKFQGRVTMTRDTSITTAYMELSWLRSDDTAVYYCAREVGTTTTGVDYWGQGTLVTVSS
VL: VIWMTQSPSSLSASVGDRVTFTCQASQDINIYLTWYQIKPGKAPKVLIYDASTLESGVPSRFSGSGFGTHFVFTISSLQPEDFATYYCQHYDSLPLTFGGGTKVEIK
notes: as for B2

- Kd [1]: 25.1 nM
- koff [1]: 0.00169 s⁻¹
- kon [1]: 67600 M⁻¹ s⁻¹
- EC50 [2]: 0.65 nM
- EC50 [3]: 6.07 nM
B9: 2020EP032-C09 scFv (scFv, V domains shown)
VH: QVQLVESGGGLVKPGGSLRLSCAASGFSFNNAWMSWVRQAPGKGLEWVGRIKSKTDDATTEYAAPVEGRFTISRDDSKNMLYLQMDSLKTEDTAVYYCTTDLRWEELPMYWGQGTLVTVSS
VL: VIWMTQSPSSLSASVGDRVTITCRASQGIRNDLGWYQQKPGKAPKVLIYAASSLQSGVPSRFSGSGSGTDFTLTISSLQPEDFATYYCLQDYNYPQTFGQGTKVGIKR
notes: as for B2

- Kd [1]: 10.4 nM
- koff [1]: 0.00149 s⁻¹
- kon [1]: 143000 M⁻¹ s⁻¹
- EC50 [2]: 0.23 nM
- EC50 [3]: 2.54 nM
B7: 2020EP083-H01 scFv (scFv, V domains shown)
VH: QLQLQESGPGLVKPAETLSLTCTVSGGSVSSGDNLWDWIRQPPGKGLEWIGSIRDSGNPAYNPSLRSRVTISADTSTDQFSLKLTSVTAADTAVYYCARHSDGGYGKIYGMDVWGQGTTVTVSS
VL: DIQLTQSPSFLSASVGDRVTITCRASQAVSTYLVWYLQKPGQAPRLLIYAASTLQSGVPSRFSGSGSGTDFTLTISRLQPEDAGTYFCQQLNSNALVFGGGTKVDIK
notes: as for B2
